Data reported in US20230390337A1.

Molecular target: high-affinity non-cleavable CD16 (hnCD16) Fc receptor
Assay: cell-based or functional assay

Question: Rituximab (antibody) was tested. Which % specific cytotoxicity at E:T=1:1 (ADCC against CD19 negative leukemia cells) (% specific cytotoxicity) did it give?
Answer: 75.6
